Assay results reported in US20050148069A1, “IGF-1 instructs multipotent adult CNS neural stem cells to an oligodendroglial lineage” (priority 2003, published 2005).

Tested on: adult hippocampus-derived neural progenitor cells
Assay: in vitro differentiation analysis of neural progenitor cells (immunocytochemistry for lineage markers)
Assay type: cell-based, rat
Protocol: The neural progenitor cells isolated from the hippocampus of female Fischer 344 used in this study have been characterized previously (Gage et al., 1995; Palmer et al., 1997). The whole brain-derived neural stem cells from PIO ICR mice were isolated and cultured according to the methods as described, with slight modifications. Cells were cultured as previously described (Gage et al., 1995; Ray et al., 1993). Cells between passages 10 and 20 were used for in vitro differentiation analyses. To induce differentiation, cells were plated into 4-well chamber slides at a density of 55,000-75,000 cells per well and were allowed to proliferate in N2-supplemented (Invitrogen) DMEM:F12 (Omega Scientific) medium containing 20 ng/ml FGF-2 (PeproTech, Inc.) for 24 hours. FGF-2 was then withdrawn and cells were subsequently treated with differentiation media. […] For IGF-induction experiments, cells were trypsinized, washed with 1× PBS, and plated into insulin-free N2 medium. […] In some cultures, BrdU (2.5 μM, Sigma) was added to label dividing cells, and Q-VD-OPh (2 μM, Enzyme Systems Products) was added to prevent apoptosis.
Cells were fixed with 4% paraformaldehyde, followed by immunocytochemical staining as described (Palmer et al., 1999). Labeled cells were visualized using a Nikon E800 upright microscope or a Nikon E600 inverted microscope (Nikon Inc.) and a Spot RT CCD camera (Diagnostic Instruments Inc.). 4′,6-diamidino-2-phenylindole (DAPI) was used to identify individual cells. Quantification of cell phenotypes was with StereoInvestigator (MicroBrightfield Inc.); for each marker, 500-1000 cells were sampled systematically from standardized fields at 40×magnification. For quantification of live/dead cells, images were taken of cultures live-stained with propidum iodide (1 μg/ml; Molecular Probes) and Hoescht 33342 (1 μg/ml; Sigma) at 10×magnification, and cells were counted using Image-Pro (Media Cybernetics). The following primary antibodies were used: rabbit anti-Tuj1 (1:7500;Covance), mouse anti-RIP (1:25-1:75; Hybridoma Bank); guinea pig anti-GFAP (1:500-1:2500; Advanced Immunochemical, Inc.); rabbit anti-MBP (1:500; Chemicon International Inc.), rat anti-BrdU (1:400; Accurate). Secondary antibodies were all from Jackson ImmunoResearch and used at 1:250 dilution. The detection of BrdU in cultured cells required treatment in 2 N HCL at 37° C. for 30 min (Palmer et al., 1999). All experiments were independently replicated at least 3 times.

B1: Noggin: extracellular protein that binds BMP ligands, BMP antagonist (protein, UniProt Q13253 28-232, looked up)
Noggin: QHYLHIRPAPSDNLPLVDLIEHPDPIFDPKEKDLNETLLRSLLGGHYDPGFMATSPPEDRPGGGGGAAGGAEDLAELDQLLRQRPSGAMPSEIKGLEFSEGLAQGKKQRLSKKLRRKLQMWLWSQTFCPVLYAWNDLGSRFWPRYVKVGSCFSKRSCSVPEGMVCKPSKSVHLTVLRWRCQRRGGQRCGWIPIQYPIISECKCSC
In the case of B1, the “differentiation or survival effects of Noggin alone” value (500 ng/ml Noggin alone, insulin-free media) is reported as “did not display any enhanced differentiation or survival effects”, the “reversal of BMP2 inhibition of oligodendrocyte differentiation” value (Noggin 500 ng/ml with BMP2 50 ng/ml and IGF-I 500 ng/ml) is reported as “efficiently reversed the inhibitory effects of BMP signaling” and the “percentage of oligodendrocytes vs IGF-I alone” value (Noggin 500 ng/ml with IGF-I 20-100 ng/ml) is reported as “significant increase in the percentage of oligodendrocytes”. The “percentage of RIP+ oligodendrocytes vs IGF-I alone” value (Noggin 500 ng/ml with IGF-I 500-1000 ng/ml) was “did not result in a significant change”.
